From patent US20250154268A1 (NONA BIOSCIENCES SUZHOU, published 2025)
Where a chain is given by its changes, count along the chain named. Names may count otherwise. Like-named read-outs stand apart in the source and are kept apart here.

Columns and labels:
human CD25 [1] = biological target: T1, human CD25 (human, UniProt P01589 22-272); experiment: flow cytometry, SU-DHL-1 cells
T1 construct: whole, on cells; Always presented on cells; also called huCD25; IL2Rα
T1 sequence (looked up): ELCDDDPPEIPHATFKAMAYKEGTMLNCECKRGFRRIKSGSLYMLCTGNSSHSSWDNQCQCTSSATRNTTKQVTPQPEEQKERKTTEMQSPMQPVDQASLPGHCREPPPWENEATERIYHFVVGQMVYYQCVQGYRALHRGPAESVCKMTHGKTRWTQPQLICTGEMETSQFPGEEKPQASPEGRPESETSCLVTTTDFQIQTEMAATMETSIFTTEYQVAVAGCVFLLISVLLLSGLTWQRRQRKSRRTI
Method: (§1) Briefly, the CHOK1-huCD25 cells and HEK293-cynoCD25 cells were digested, the SU-DHL-1 cells, Karpas299 cells, Treg cells and Teff cells were collected, and the cells were resuspended in PBS containing 2% BSA. The cells were adjusted to a cell density of 1×10⁶ cells/mL, respectively. […] The cells were incubated at 4° C. for 1 hour in the dark. After the incubation, the cells were rinsed twice by adding pre-chilled PBS containing 2% BSA at 100 μL/well, and centrifuged at 500 g at 4° C. for 5 minutes, and the supernatant was discarded. […] The cells were washed twice by adding pre-chilled PBS containing 2% BSA at 100 μL/well, and centrifuged at 500 g at 4° C. for 5 minutes, and the supernatant was discarded. Finally, the cells were resuspended in pre-chilled PBS containing 2% BSA at 200 μL/well, and the fluorescence signal values were read using a BD CantoII flow cytometer.

cynomolgus monkey CD25 [2] = biological target: T2, cynomolgus monkey CD25 (cynomolgus monkey, UniProt H6WS54 22-272); experiment: flow cytometry, HEK293-cynoCD25 cells
T2 construct: whole, on cells; also called cynoCD25
T2 sequence: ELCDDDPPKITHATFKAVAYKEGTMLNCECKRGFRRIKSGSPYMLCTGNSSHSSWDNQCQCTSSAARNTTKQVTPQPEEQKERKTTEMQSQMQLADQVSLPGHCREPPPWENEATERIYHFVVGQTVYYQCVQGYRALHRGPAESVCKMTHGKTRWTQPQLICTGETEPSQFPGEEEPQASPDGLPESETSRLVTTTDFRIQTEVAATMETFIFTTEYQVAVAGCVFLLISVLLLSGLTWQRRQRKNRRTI
Method: as §1

human CD25 [3] = biological target: T1, human CD25; experiment: flow cytometry, Karpas299 cells
Method: as §1

human CD25 [4] = biological target: T1, human CD25; experiment: flow cytometry, CHOK1-huCD25 cells
Method: as §1

human CD25 [5] = biological target: T1, human CD25; experiment: flow cytometry, SU-DHL-1 cells; remark: listed apart in the source
Method: as §1

cynomolgus monkey CD25 [6] = biological target: T2, cynomolgus monkey CD25; experiment: flow cytometry, HEK293-cynoCD25 cells; remark: listed apart in the source
Method: as §1

human CD25 [7] = biological target: T1, human CD25; experiment: flow cytometry, Karpas299 cells; remark: listed apart in the source
cynomolgus monkey CD25 [8] = biological target: T2, cynomolgus monkey CD25; experiment: flow cytometry, HEK293-cynoCD25 cells; remark: listed apart in the source
Method: as §1

human CD25 [9] = biological target: T1, human CD25; experiment: flow cytometry, SU-DHL-1 cells; remark: listed apart in the source
Method: as §1

human CD25 [10] = biological target: T1, human CD25; experiment: flow cytometry, Karpas299 cells; remark: listed apart in the source
human CD25 [11] = biological target: T1, human CD25; experiment: flow cytometry, Karpas299 cells; remark: listed apart in the source
Method: as §1

human CD25 [12] = biological target: T1, human CD25; experiment: flow cytometry, SU-DHL-1 cells; remark: listed apart in the source
Method: as §1

cynomolgus monkey CD25 [13] = biological target: T2, cynomolgus monkey CD25; experiment: flow cytometry, HEK293-cynoCD25 cells; remark: listed apart in the source
Method: as §1

B1: PR005433 (antibody, human IgG1, kappa, V domains shown)
VH: EVQLLESGGGLVQPGGSLRLSCAASGFTFSSYAMSWVRQAPGKGLEWVSTLSGRGGSTYYADSVKGRFTISRDNSNNTLYLQMNSLRAEDTAVYYCAKEGYSSSYYEYFQHWGQGTLVTVSS
VL: EIVLTQSPATLSVSPGERATLSCRASQSISSNLAWYQQKPGQAPRLLIYGASTRATGIPARFSGSGSGTEFTLTISSLQSEDFAVYSCQQYNYWPLTFGGGTKVEIKR
notes: Fully human recombinant IgG1, kappa; Clone No. 308B6F9 is printed for both PR005433 and PR005435; also called 308B6F9
- EC50 (human CD25 [1]): 4.9 nM
- Maximum MFI (human CD25 [1]): 44300 MFI
- EC50 (cynomolgus monkey CD25 [2]): 3.73 nM
- Maximum MFI (cynomolgus monkey CD25 [2]): 60500 MFI
- EC50 (human CD25 [3]): 4.31 nM
- Maximum MFI (human CD25 [3]): 24900 MFI
- EC50 (human CD25 [4]): 8.19 nM
- Maximum MFI (human CD25 [4]): 22400 MFI

B2: PR005435 (antibody, human IgG1, kappa, V domains shown)
VH: QVQLQQSGPGLVKPSQTLSLTCAVSGDRVSNINAAWNWIRQSPSRGLEWLGRTYYRSKWYNDYAVSVKSRISINLDTSKDQFSLQLNPVTPEDTAVYYCARDPWEAFDYWGQGTLVTVSS
VL: B1 VL with L4M, I29V, G50A, S87F, Y93D, P95S, L96I, G100Q, K103R, V104L
notes: as for B1
- EC50 (human CD25 [1]): 97.6 nM
- Maximum MFI (human CD25 [1]): 19500 MFI
- EC50 (cynomolgus monkey CD25 [2]): 4.15 nM
- Maximum MFI (cynomolgus monkey CD25 [2]): 154000 MFI
- EC50 (human CD25 [3]): 65.4 nM
- Maximum MFI (human CD25 [3]): 16200 MFI
- EC50 (human CD25 [4]): 15.2 nM
- Maximum MFI (human CD25 [4]): 31700 MFI

B3: PR006769 (antibody, human IgG1, kappa, V domains shown)
VH: QVQLQGSGPGLVKPSGTLSLTCAVSPGSISSSNWWNWVRQPPGKGLEWIGEIYHRGSTNYNPSLKSRVTISVDKSKNQFSLKLSSVTAADTAVYYCTHYYYDSSGYYYGYWGQGTLVTVSS
VL: DIVMTQSPLSLPVTPGEPASISCRSSQSLLHRDVYNYVDWYLQKPGQSPQLLIYLGSNRASGVPDRFSGSGSGTDFTLKISRVEAEDVGVYYCMQALQTPLTFGGGTKVEIKR
notes: PTM variant of PR005436 (VH:D26P); human IgG1
- EC50 (human CD25 [5]): 2.94 nM
- Maximum MFI (human CD25 [5]): 32200 MFI
- EC50 (cynomolgus monkey CD25 [6]): 3.53 nM
- Maximum MFI (cynomolgus monkey CD25 [6]): 132000 MFI
- EC50 (human CD25 [7]): 39.3 nM
- Maximum MFI (human CD25 [7]): 16800 MFI

B4: PR005436 (antibody, human IgG1, kappa, V domains shown)
VH: B3 VH with P26D
VL: B3 VL with V34G
notes: Fully human recombinant IgG1, kappa; also called 310D11F6
- EC50 (human CD25 [1]): 1.4 nM
- Maximum MFI (human CD25 [1]): 33300 MFI
- EC50 (cynomolgus monkey CD25 [2]): 1.75 nM
- Maximum MFI (cynomolgus monkey CD25 [2]): 189000 MFI
- EC50 (human CD25 [3]): 67.2 nM
- Maximum MFI (human CD25 [3]): 32100 MFI
- EC50 (human CD25 [4]): 0.86 nM
- Maximum MFI (human CD25 [4]): 49200 MFI

B5: PR006771 (antibody, human IgG1, kappa, V domains shown)
VH: B3 VH
VL: B3 VL with D33R, V34G
notes: as for B3
- EC50 (human CD25 [5]): 4.56 nM
- Maximum MFI (human CD25 [5]): 29800 MFI
- EC50 (cynomolgus monkey CD25 [6]): 5.35 nM
- Maximum MFI (cynomolgus monkey CD25 [6]): 136000 MFI
- EC50 (human CD25 [7]): 40 nM
- Maximum MFI (human CD25 [7]): 8970 MFI

B6: PR008014 (antibody, human IgG1, kappa, V domains shown)
VH: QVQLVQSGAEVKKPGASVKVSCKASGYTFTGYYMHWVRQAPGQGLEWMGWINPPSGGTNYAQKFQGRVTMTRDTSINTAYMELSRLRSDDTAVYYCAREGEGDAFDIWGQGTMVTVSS
VL: DFQMTQSPSTLSASVGDRVTITCRASQSISSWLAWYQQKPGKAPKLLIYEASSLKSGVPSRFSGSESGTEFTLTISSLQPDDFATYYCHQYLSYSTFGQGTKVEIKR
notes: PTM variant of PR006931 (VH: N54P, S60Y); human IgG1
- EC50 (cynomolgus monkey CD25 [8]): 1.63 nM
- Maximum MFI (cynomolgus monkey CD25 [8]): 31500 MFI
- EC50 (human CD25 [9]): 1.36 nM
- Maximum MFI (human CD25 [9]): 32800 MFI
- EC50 (human CD25 [10]): 30 nM
- Maximum MFI (human CD25 [10]): 9510 MFI

B7: PR006931 (antibody, human IgG1, kappa, V domains shown)
VH: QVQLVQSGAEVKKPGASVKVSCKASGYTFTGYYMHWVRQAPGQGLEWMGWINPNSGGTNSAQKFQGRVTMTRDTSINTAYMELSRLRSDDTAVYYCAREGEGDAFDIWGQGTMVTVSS
VL: B6 VL with L92N
notes: Fully human recombinant IgG1, kappa; also called 171B2D12
- EC50 (human CD25 [11]): 40 nM
- Maximum MFI (human CD25 [11]): 9450 MFI
- EC50 (human CD25 [12]): 8.48 nM
- Maximum MFI (human CD25 [12]): 33700 MFI
- EC50 (cynomolgus monkey CD25 [13]): 6.25 nM
- Maximum MFI (cynomolgus monkey CD25 [13]): 152000 MFI
